Test results from PMC6085368, “Structure of the essential peptidoglycan amidotransferase MurT/GatD complex from Streptococcus pneumoniae” (Nature Communications, 2018).

What was measured:
[1] = biological target: MurT variants with substituted conserved residues ("in most cases"); assay: co-purification (metal-affinity chromatography of His-tagged MurT, SEC; SDS-PAGE with Coomassie stain, ratio of bands); His-tagged MurT (wild type or variant) co-expressed with untagged GatD in E. coli; lysate loaded on HisTrap FF in 50 mM HEPES pH 7.5, 300 mM NaCl, 10 mM MgCl2, 25 mM imidazole, 2 mM TCEP; then SEC
MurT/GatD [2] = biological target: T1, MurT/GatD (Streptococcus pneumoniae, UniProt Q8DNZ8+Q8DNZ9); assay: X-ray crystal structure, […] Å; assay type: binding; conditions: tentative assignment to residual density near GatD Cys107; no glutamine added, presumably carried over from E. coli
T1 construct: co-expressed in E. coli BL21 Star (DE3) from modified pET-30; MurT with N-terminal poly-His tag (cleavage not mentioned), GatD untagged; MurT/GatD heterodimer (four complexes in the asymmetric unit); MurT residues 1-42 present but not visible
T1 sequence (Q8DNZ9 1-447): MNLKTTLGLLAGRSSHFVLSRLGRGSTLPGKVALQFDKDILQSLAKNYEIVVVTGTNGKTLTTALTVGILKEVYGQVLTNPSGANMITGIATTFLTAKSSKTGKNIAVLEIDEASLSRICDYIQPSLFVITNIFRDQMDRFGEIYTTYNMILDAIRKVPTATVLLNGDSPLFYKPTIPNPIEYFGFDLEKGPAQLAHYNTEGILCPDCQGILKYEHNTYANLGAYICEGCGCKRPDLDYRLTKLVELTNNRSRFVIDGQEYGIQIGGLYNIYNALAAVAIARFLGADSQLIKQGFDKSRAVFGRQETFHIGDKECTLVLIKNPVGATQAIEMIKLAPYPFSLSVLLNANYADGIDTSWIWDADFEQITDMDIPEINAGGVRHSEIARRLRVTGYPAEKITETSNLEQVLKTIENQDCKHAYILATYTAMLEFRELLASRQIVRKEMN
T1 sequence (Q8DNZ8 1-260): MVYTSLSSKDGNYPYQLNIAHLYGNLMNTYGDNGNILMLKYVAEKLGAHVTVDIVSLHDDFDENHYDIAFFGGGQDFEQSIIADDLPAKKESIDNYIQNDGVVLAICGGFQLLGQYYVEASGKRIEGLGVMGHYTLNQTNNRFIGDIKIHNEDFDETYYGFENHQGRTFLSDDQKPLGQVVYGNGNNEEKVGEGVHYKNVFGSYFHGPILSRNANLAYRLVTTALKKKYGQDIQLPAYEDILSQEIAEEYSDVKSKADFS

MurT/GatD [3] = biological target: T1, MurT/GatD; assay: coupled ATPase assay (pyruvate kinase / lactate dehydrogenase, NADH at […] nm), initial velocities; assay type: biochemical; conditions: 2 mM ATP, 10 mM L-Gln, 10 mM MgCl2, 150 mM NaCl, 50 mM HEPES, 2 mM TCEP, 1% DDM, pH 7.5, 30 °C; MurT active site; read-out: Initial velocities method / Apparent KM
purified protein [4] = substrate: Nc1ncnc2c1ncn2[C@@H]1O[C@H](COP(=O)(O)OP(=O)(O)OP(=O)(O)O)[C@@H](O)[C@H]1O; assay: purified protein; assay type: biochemical, Streptococcus pneumoniae; conditions: 10 mM L-Gln, 10 μM lipid II (below its apparent KM), 10 mM MgCl2, 150 mM NaCl, 50 mM HEPES, 2 mM TCEP, 1% DDM, pH 7.5, 30 °C, MurT active site
purified protein [5] = substrate: NC(=O)CC[C@H](N)C(=O)O; assay: purified protein; assay type: biochemical, Streptococcus pneumoniae; conditions: 2 mM ATP, 10 μM lipid II (below its apparent KM), 10 mM MgCl2, 150 mM NaCl, 50 mM HEPES, 2 mM TCEP, 1% DDM, pH 7.5, 30 °C, GatD glutaminase site
[6] = biological target: T2, MurT 4C4S variant (the four cysteines of the cysteine tetrad replaced by serines), with N-terminal … (Streptococcus pneumoniae, UniProt Q8DNZ9 1-447, 4C4S (Cys205 to Ser) | 4C4S (Cys208 to Ser) | 4C4S (Cys227 to Ser) | 4C4S …); assay: co-purification (metal-affinity chromatography of His-tagged MurT, SEC; SDS-PAGE with Coomassie stain, ratio of bands); His-tagged MurT (wild type or variant) co-expressed with untagged GatD in E. coli; lysate loaded on HisTrap FF in 50 mM HEPES pH 7.5, 300 mM NaCl, 10 mM MgCl2, 25 mM imidazole, 2 mM TCEP; then SEC; conditions: partners not purified
T2 construct: MurT, Streptococcus pneumoniae, with cysteines 205, 208, 227 and 230 replaced by serines; PDB 6FQB holds the wild-type parent; also called MT4C4S; 4C4S MurT/GatD; source: E. coli BL21 Star (DE3), co-expressed with GatD; purified (HisTrap, SEC); not shown: poly-histidine, N-terminal, kept
T2 sequence: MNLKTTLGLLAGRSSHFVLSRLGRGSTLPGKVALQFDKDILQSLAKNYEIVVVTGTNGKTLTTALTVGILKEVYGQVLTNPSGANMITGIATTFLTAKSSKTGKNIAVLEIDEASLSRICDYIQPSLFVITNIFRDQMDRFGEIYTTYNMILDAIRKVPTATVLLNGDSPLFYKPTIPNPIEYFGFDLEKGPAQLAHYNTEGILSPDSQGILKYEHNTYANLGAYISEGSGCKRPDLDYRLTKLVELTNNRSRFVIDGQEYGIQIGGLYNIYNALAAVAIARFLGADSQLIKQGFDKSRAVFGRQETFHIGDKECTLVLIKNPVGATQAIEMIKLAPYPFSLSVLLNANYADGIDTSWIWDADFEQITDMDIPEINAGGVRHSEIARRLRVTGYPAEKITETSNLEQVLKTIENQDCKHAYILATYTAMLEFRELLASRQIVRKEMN

[7] = biological target: T3, MurT from Streptococcus pneumoniae, wild type, with N-terminal poly-histidine tag (Streptococcus pneumoniae, UniProt Q8DNZ9 1-447); assay: as above; conditions: partners not purified
T3 construct: MurT, subunit of the lipid II amidotransferase MurT/GatD, Streptococcus pneumoniae; N-terminal region 1-42 present by mass spectrometry though not visible in the crystal; central domain 43-302, C-terminal domain 303-439; also called MT; source: E. coli BL21 Star (DE3), co-expressed with GatD from a modified pET-30 plasmid; purified (HisTrap, Q Sepharose, SEC; anion exchange omitted for activity …)
T3 sequence: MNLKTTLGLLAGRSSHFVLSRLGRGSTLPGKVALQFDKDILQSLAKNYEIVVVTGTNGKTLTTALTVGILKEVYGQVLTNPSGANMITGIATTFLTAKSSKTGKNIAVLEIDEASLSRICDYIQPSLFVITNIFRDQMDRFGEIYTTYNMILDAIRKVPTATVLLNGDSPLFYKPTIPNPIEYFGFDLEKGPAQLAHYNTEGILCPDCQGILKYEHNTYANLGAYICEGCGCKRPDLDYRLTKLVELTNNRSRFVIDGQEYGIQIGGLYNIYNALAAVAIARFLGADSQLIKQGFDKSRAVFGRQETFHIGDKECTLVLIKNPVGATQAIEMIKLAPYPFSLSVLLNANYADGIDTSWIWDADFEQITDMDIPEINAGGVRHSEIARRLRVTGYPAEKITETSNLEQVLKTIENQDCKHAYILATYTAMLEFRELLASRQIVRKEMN

Which ratio of MurT/GatD bands [1] does the source give for “GatD from Streptococcus pneumoniae, wild type, without tag (from UniProt Q8DNZ8 1-260) (enzyme)” here?
The ratio of MurT/GatD bands was 1.78.

With NC(=O)CC[C@H](N)C(=O)O [L-Gln] as the molecule, how does the “X-ray crystal structure, 3.0 Å” value (MurT/GatD [2]) read?
The value was “glutamine was thus tentatively placed in the residual density observed in GatD active site”.

For lipid II, which Km (MurT/GatD [3]) is on record?
The Km was 220 ± 60 µM.

B1: MurT/GatD (Streptococcus pneumoniae R6) (protein)
chain 1: MNLKTTLGLLAGRSSHFVLSRLGRGSTLPGKVALQFDKDILQSLAKNYEIVVVTGTNGKTLTTALTVGILKEVYGQVLTNPSGANMITGIATTFLTAKSSKTGKNIAVLEIDEASLSRICDYIQPSLFVITNIFRDQMDRFGEIYTTYNMILDAIRKVPTATVLLNGDSPLFYKPTIPNPIEYFGFDLEKGPAQLAHYNTEGILCPDCQGILKYEHNTYANLGAYICEGCGCKRPDLDYRLTKLVELTNNRSRFVIDGQEYGIQIGGLYNIYNALAAVAIARFLGADSQLIKQGFDKSRAVFGRQETFHIGDKECTLVLIKNPVGATQAIEMIKLAPYPFSLSVLLNANYADGIDTSWIWDADFEQITDMDIPEINAGGVRHSEIARRLRVTGYPAEKITETSNLEQVLKTIENQDCKHAYILATYTAMLEFRELLASRQIVRKEMN
chain 2: MVYTSLSSKDGNYPYQLNIAHLYGNLMNTYGDNGNILMLKYVAEKLGAHVTVDIVSLHDDFDENHYDIAFFGGGQDFEQSIIADDLPAKKESIDNYIQNDGVVLAICGGFQLLGQYYVEASGKRIEGLGVMGHYTLNQTNNRFIGDIKIHNEDFDETYYGFENHQGRTFLSDDQKPLGQVVYGNGNNEEKVGEGVHYKNVFGSYFHGPILSRNANLAYRLVTTALKKKYGQDIQLPAYEDILSQEIAEEYSDVKSKADFS
notes: co-expressed in E. coli BL21 Star (DE3) from modified pET-30; MurT with N-terminal poly-His tag (cleavage not mentioned), GatD untagged; MurT/GatD heterodimer (four complexes in the asymmetric unit); MurT residues 1-42 present but not visible
Which results are given for B1?
Km (purified protein [4]): 16 ± 2 µM; Km (purified protein [5]): 78 ± 8 µM

B2: GatD from Streptococcus pneumoniae, wild type, without tag (enzyme)
chain: MVYTSLSSKDGNYPYQLNIAHLYGNLMNTYGDNGNILMLKYVAEKLGAHVTVDIVSLHDDFDENHYDIAFFGGGQDFEQSIIADDLPAKKESIDNYIQNDGVVLAICGGFQLLGQYYVEASGKRIEGLGVMGHYTLNQTNNRFIGDIKIHNEDFDETYYGFENHQGRTFLSDDQKPLGQVVYGNGNNEEKVGEGVHYKNVFGSYFHGPILSRNANLAYRLVTTALKKKYGQDIQLPAYEDILSQEIAEEYSDVKSKADFS
notes: GatD, class I glutaminase subunit of the MurT/GatD amidotransferase, Streptococcus pneumoniae; also called GD; GatDSpn; source: E. coli BL21 Star (DE3), co-expressed with His-tagged MurT from a modified pET-30 plasmid; co-purified with MurT (HisTrap, Q Sepharose, SEC)
Which results are given for B2?
ratio of the Coomassie-stained MurT/GatD bands after SDS-PAGE [6]: 1.4; ratio of the Coomassie-stained MurT/GatD bands after SDS-PAGE [7]: 1.78
